From the DeepSol protein solubility set

Experiment: soluble on expression in E. coli; label from the status in PepcDB or PDB records
In the case of “MKLLKDLLVDRKEFEDWKNNLTWARDGTLYLTTFPDISIGQPKYAKDINCNSKNLFHVKEFPLEFENKLDFELAQQNGLLNSQPVCYPRVCKPSPIDDWMAVLSNNGNVSVFKDNKMLTNLDSKGNLSSRTYHCFEWNPIESSIVVGNEDGELQFFSIRKNSENTPEFYFESSIRLSDAGSKDWVTHIVWYEDVLVAALSNNSVFSMTVSASSHQPVSRMIQNASRRKITDLKIVDYKVVLTCPGYVHKIDLKNYSISSLKTGSLENFHIIPLNHEKESTILLMSNKTSYKVLLEDELHVTADNIIAPYLEKKFKKWSTIWNEFNNYETTLVIHGISLSPDGYSIAIVYDMERVAFKYKIASEQSFNIMFAPLYHTWTISERAVGLAWYQTYQIYNQSLPKLPENFSMNKKLLNGNYPISLDFQSYLNALMKSEEMRIIMFLNMTIDKPSILSFLEALYEYAINKKSELTNSFDLACVLSIAAILKREAPIYNGTLLMKNSFLEETFNLESFTADPETVTSTTNNTWKRCGVTLLPILTTHVKICPVSKQRVIDIKRDDLNDYGWFTRGLLERFNEISVYCGTTLEVM”, the “soluble on expression in E. coli” value is reported as “soluble”. In the case of “SLANLSKERQQALLKILHYIQDGGDFTEAKKMFQESFDKVDVSEITAAERELIAQGLDPRKIQYLCNVHADVFKGNIKENAANPDFATPGHPVNTLKQENVVIKSLVNDYLLPNLKKWEKDHSEQTLSKIKQALSDLATIGKHYARKETSFFPLMTKYGITAPPQVMWGVDDKIRRLIKEANNVVNENDVDPAKLRKIIDEVSHEVLEMIFKEEEIMVPMIDEVASPADWGNVKDEEKQIGYTLINPPMNWKPKEE”, the “soluble on expression in E. coli” value is reported as “soluble”. In the case of “MSLASIRDIARQAEVSPGTVSRVLNNDPTLSVAKETRTRIHQIAQALQYEKVTRKNKRIQIITYASREKEMSDPYYREIRLAIEAEVKRLNLSLKRTIRIDGQQDHIDLNKIENAGAIIVIGNFSVDALNKLKTHNANMVVINNPNTPKSIDAVYSDLDDAMTELLNRILDKGLTKIAYIGGHHTIRELNGITTTNAADVRYQAYQSWCEKHDVEEIVLLNGWGKTQGEDAVKVYLESDHAFPQVFIAGNDMIAIGILQQLQLNKKAIPEEVKLISFNDLEVIQYAVPSISSVHIPVDEFGRTAVRMAEERINNTRQIAIHVVVEAQLKARNTFKVEGHHHHHH”, the “soluble on expression in E. coli” value is reported as “soluble”. For “MNTYFDIPHRLVGKALYESYYDHFGQMDILSDGSLYLIYRRATEHVGGSDGRVVFSKLEGGIWSAPTIVAQAGGQDFRDVAGGTMPSGRIVAASTVYETGEVKVYVSDDSGVTWVHKFTLARGGADYNFAHGKSFQVGARYVIPLYAATGVNYELKWLESSDGGETWGEGSTIYSGNTPYNETSYLPVGDGVILAVARVGSGAGGALRQFISLDDGGTWTDQGNVTAQNGDSTDILVAPSLSYIYSEGGTPHVVLLYTNRTTHFCYYRTILLARAVAGSSGWTERVPAYSAPAASGYTSQVVLGGRRILGNLFRETSSTTSGAYQFEVYLGGVPDFESDWFSVSSNSLYTLSHGLQRSPRRVVVEFARSSSPSTWNIVMPSYFNDGGHKGSGAQVEVGSLNIRLGTGAAVWGTGYFGGIDNSATTRLATGYYRVRAWI”, the “soluble on expression in E. coli” value was “soluble”. With “MSKLVVIGGGPAGYVAAITAAQNGKNVTLIDEADLGGTCLNVGCMPTKSLLESAEVHDIVRKSNHYGVTLNNGSISIDWKQMQVRKSQIVTQLVQGIQYLMKKNKIKVIQGKAKFETDHRVRVTYGDKEIVVDGEQFIIATGSEPTELPFAPFDGKWILNSTHAMSLKNIPKSLLIVGGGVIGCEFASIYSRLGTKVTIVEMAPQLLPGEDEDIAHILRGKLENDGVKIFTGATLKGLNSYKKQALFEYEGGIQEVNPEFVLVSVGRKPRVQQLNLEKAGIQYSNKGISVNEHMQTNVSHIYAAGDVIGGIQLAHVAFHEGTTAALYASGEDVKVNYHAVPRCIYTAPEIASVGLTEKDAKEQYGDIQIGEFPFTANGKALIIGEQTGKVKVIVEPKYQEIVGISIIGPRATELIGQGTVMIHTEVTADIMRDYIAAHPTLSESIHEALLQAVGHAVHA” the “soluble on expression in E. coli” value was “not soluble”. In the case of “MSGFSTEERAAPFSLEYRVFLKNEKGQYISPFHDIPIYADKDVFHMVVEVPRWSNAKMEIATKDPLNPIKQDVKKGKLRYVANLFPYKGYIWNYGAIPQTWEDPGHNDKHTGCCGDNDPIDVCEIGSKVCARGEIIGVKVLGILAMIDEGETDWKVIAINVDDPDAANYNDINDVKRLKPGYLEATVDWFRRYKVPDGKPENEFAFNAEFKDKDFAIDIIKSTHDHWKALVTKKTNGKGISCMNTTLSESPFKCDPDAARAIVDALPPPCESACTVPTDVDKWFHHQKN”, the “soluble on expression in E. coli” value is reported as “soluble”. For “MAHHHHHHMSHYLLVTFTFNCPEIRILGPIKEQTIEKLNDVIPNATTTSRSNRTALPKFEYLPNPNHWYIKLDRQFCDEDGKSHLMVLLLDALSEEGSWRLVSSFVTKEPSGTGSKEGTETHTLFLNKLLAEDS”, the “soluble on expression in E. coli” value was “soluble”. For “MHIIDSHCHLNFEGLKERLPEVLSNMEANGVGQALAISVSRESFSEVFAVAEAHEHIYCTIGVHPDSREAEEFSIAEMVEAAAHPKVVGIGETGLDYYWCKGDLSWQHKRFADHIEAANQTGLPVIVHTRDAAADTLAILKECKTNSGVIHCFSEDTAFARAAMDLGLYISFSGIVTFKNAPLVQEAAKYVPDDRILVETDAPFLAPVPKRGRQNEPAFVRHTAEHIAKLRNQTLEQVAAYTTENFYRLFKKVPDMRAVLEHHHHHH”, the “soluble on expression in E. coli” value was “not soluble”. With “GPGSTRCQRERLLYVRRFDPVRGYHLRAAEDISVGTIIFQDECRPVRLCTKPYALQHFSKADYVDFQHNAWPVGRDGHYYALWDHDPAQWRAFNHSCEPNMSFAPMRSLDVVALRNIPKGEELTMDYRQFMDSTMPGFQCNCGTEKCEGFVSPGSLVDSPTAKIASQPTVALRHNIAVRLNPI” the “soluble on expression in E. coli” value was “not soluble”. With “MGSDKIHHHHHHMFRLAKEELEKLGAMITATEIYQQPGLWKEAHQLYFDQLEKIESFLKSIKEKHDFVHVVFTGAGTSDFVGQSIANYLNQVNDLKHIRFSAIGTVELVSRPHDYLQADLPTILVSFARSGNSPESVAAVEVAKQLVDKLYQVTITCAPEGKLALAAEGDVENLLLLQPAGSNDKGFAMTGSYSCMALTALLVFSPASQEEKAAWVEIIARLGQDVLDREDYVQDLINLDFERVIYLGSGGFYGLAHEAQLKILELTAGKIATMYESPLGFRHGPKSFINEKTLIFLFASNDAYTRQYDVDLLNEVHGDGIAERIVALSADKLVGTEAANFVLAEGGADLPDVFLTFPYILFAQTVSIMAAIKCNNLPDTPSPTGTVNRVVQGVIIHPLEK” the “soluble on expression in E. coli” value was “not soluble”. With “MVDVIVIGAGIGGLTAAALLQERGFSTVVFEKNRFPGGSCSSFEKGGYTFDAGASVFYGFCDDDAMGTLNLHSRIFRKLGIAVETIPDPVQIHYHMPGGFDVPAWFDRDRFLESLCRRFPHERTGIRKFYDELESVYEILNSLPAGSLEDVIHLGVVGARHPLKVMALGVKTLFSMGNVARRYISDKELLRFIDLEAYSWAVQDAVSTPLVNAGICLADRHHGGINYPVGGSGTIPAALVKGFEKFGGSIRFGSEVSKVIVKNGSAVGVRLSDGTEVSAKAVVSNATVWDTFSKLVDDPRLRIPDDRFIKAPSWFQIWLGVDGSIVPPGFHMHHIIVDDWSKYDELGGTIYFSAPSVLDPSLAPPGKHALHLFVTAETWQWEQYEYRSQEYKAAKEAFAKSLIARAERLLPGIQDATELMVTATPQSHARYLNRRDGSYGPLLKPGQNILLKPQNRTPIKNLFAAGDSTFPGQGVIAVTYSGVSCASYIARQLGKALDYLLEHHHHHH” the “soluble on expression in E. coli” value was “not soluble”. In the case of “MSLSVNSRILWVDLENSPHVPFFKPIIEELEKHGYRVVITARDCFQVCGLADLYGLPYTRIGRHYGKHKALKVVGAVIRALQMRNTLARPLPSLAIAHGSRSQLLAAKILHIPALQLADYEFSNKMPSFLSSDWIMVPETIPAGLHWRNTSRISTYPGIKEDVYVPTFKPQTGILSELGILEKEIVVTIRPPASEAHYHNPKSDDLFYATVNWLSGIDNLRMVVLPRNSSQAAHIGKTWPALIGEAKMVIPDRVLDGLNLIWHSDLVISGGGTMNREAAALGVPVYSIFKGEIGAVDKYLASTGRLTLLETADDITNKVLIQKWERPSSPDHNPRPALKVIVDKILELVEGHHHHHH”, the “soluble on expression in E. coli” value is reported as “not soluble”. For “MGLCLAKRNHDADDDEPHIELAGGNVHLITTKERWDQKLSEASRDGKIVLANFSARWCGPCKQIAPYYIELSENYPSLMFLVIDVDELSDFSASWEIKATPTFFFLRDGQQVDKLVGANKPELHKKITAILDSLPPSDK”, the “soluble on expression in E. coli” value was “soluble”. For “SDLPRHIAVLCDGNRRWARSAGYDDVSYGYRMGAAKIAEMLRWCHEAGIELATVYLLSTENLQRDPDELAALIEIITDVVEEICAPANHWSVRTVGDLGLIGEEPARRLRGAVESTPEVASFHVNVAVGYGGRREIVDAVRALLSKELANGATAEELVDAVTVEGISENLYTSGQPDPDLVIRTSGEQRLSGFLLWQSAYSEMWFTEAHWPAFRHVDFLRALRDYSAR”, the “soluble on expression in E. coli” value was “soluble”. For “DGDQCETSPCQNQGKCKDGLGEYTCTCLEGFEGKNCELFTRKLCSLDNGDCDQFCHEEQNSVVCSCARGYTLADNGKACIPTGPYPCGKQTLERRKRSVAQATSSSGEAPDSITWKPYDAADLDPTENPFDLLDFNQTQPERGDNNLTR”, the “soluble on expression in E. coli” value was “soluble”. With “AVRQLDRQGRDDVEVAVLAPQPELRIRPRFYEPDVQRMAAPLGELFAAVGVRFVQGSAQRIDVAGKRVEYRDAEGTLAQLDYDRLVLAAGSGVWRPASVAGIDAAFDVDQLEDALRLEAHLHALRDLPDSPARNTVVVAGGGFTGIETATEMPARLRAILGEKAALRVIVVDRGAAIGASMGADLSGLIAEASAELGVEWCLGRSVAAVDAEGVTLDDGQRIEAKTVVWTVGVRASTLTGQIPGERDAQGRLHVDRNLKVLGLDDVYATGDVARAATDDLGNHALMTCQHAIALGRSAGNNVAADLLGVEPIPYSQVKYVTCLDLGGWGAVFTEGWDRQVRFVREEGKKIKTEINGVWIYPPAADRAVALAAADPLIPVVA” the “soluble on expression in E. coli” value was “not soluble”. With “MLVAAILVGCGRDAPPPAAPVALDKTFLADTAAWREARLKELRAPDGWTSLVGLHWLSLKAHYIGSSADSGIKLAVGPPKMGMVSTENNAVWFVPERGAALTLDGKPLTSRIRFQSDRDPQPTLIHFDDGKGVLSLIHRGDRYALRVKHADASSRTHFAGLDYWPLDASWRINARYVPNAVGKTIPIVDIVGISSEQPNAGAIEFERDGKTFRLETIGEPGRAMFVVFADRTSGHGSYPAGRFLDLDVPDASGHVMVDFNRAYNPPCAFTPFATCPLPPPENRIDLAVSAGEKAYKVPHLEHHHHHH” the “soluble on expression in E. coli” value was “soluble”. For “MKPHALIGLLAGMLLSSSLYAADSTKPLPLHIGGRVLVESPANQPVSYTYSWPAVYFETAFKGQSLTLKFDDDQNIFRLIVDDKAPVVINKPGKVDYPVESLAPGKHRVRLEKLTETQSTSGRFLGFYTDPSAKPLALPKRKRQIEFIGDSFTVGYGNTSPSRECTDEELFKTTNSQMAFGPLTAKAFDADYQINASSGFGIVRNYNGTSPDKSLLSLYPYTLNNPDQLYHNKHWKPQVIVIGLGTNDFSTALNDNERWKTREALHADYVANYVKFVKQLHSNNARAQFILMNSDQSNGEIAEQVGKVVAQLKGGGLHQVEQIVFKGLDYSGCHWHPSANDDQLLANLLITHLQQKKGIWLEHHHH”, the “soluble on expression in E. coli” value was “soluble”. In the case of “GPGSMYVGCVGKDKHGDQIRSAAEADGTTMELEVSSDKRSGLCVVCRDGNSRTLVVHPSSASSLRDDFVSSAAAQEGQRSAKTVYTTAYASVVRVRQTLQLMTSSRCHTLPDGLKQLAAMGLANQRVLDDFGEGLVDVLGKLDIIIGNPEEMYDLAMMLQWVPSEMSDMVLAKKIATEMMCDRHGVRRVIMTRGAEPIIYAASAGESGEVPVVATCAHSAKLLATGAGDAFAGGFLAAMAAKPDDVAFCCRLSAQAATFMINHSLVTLRTDEACLAELQT”, the “soluble on expression in E. coli” value is reported as “not soluble”.
